Patent US20250250587A1 (published 2025)

Biological target: T1, Neo12 (neoantigen; source protein not named) peptide on HLA-A*02:01 (human)
T1 peptide: YLTHRVDVI
Assay: multimer staining

- binding result: recognises
B1: Neo12 neoTCR (TCR, V domains shown)
Valpha: QKEVEQDPGPLSVPEGAIVSLNCTYSNSAFQYFMWYRQYSRKGPELLMYTYSSGNKEDGRFTAQVDKSSKYISLFIRDSQPSDSATYLCAMSEDYKLSFGAGTTVTVRA
Vbeta: ETGVTQTPRHLVMGMTNKKSLKCEQHLGHNAMYWYKQSAKKPLELMFVYSLEERVENNSVPSRFSPECPNSSHLFLHLHTLQPEDSALYLCASSQSRGAQQYFGPGTRLTVT
